Test results as given in patent US20260098089A1.

Assays:
[1] = biological target: Human CD7 protein (soluble) (human) (UniProt P09564); experiment: SPR, captured mAb, global fit 1:1 model
[2] = biological target: Cynomolgus monkey (Macaca fascicularis) CD7 protein (soluble) (cynomolgus monkey (Macaca fascicularis)); experiment: SPR, captured mAb, global fit 1:1 model
[3] = biological target: Human CD7 on cells (CEM and other T-ALL cells, peripheral NK and T cells) (human) (UniProt P09564); experiment: cell-based or functional assay
Sequence of Human CD7 on cells (CEM and other T-ALL cells, peripheral NK and T cells) (human) (P09564 26-238 limits assumed): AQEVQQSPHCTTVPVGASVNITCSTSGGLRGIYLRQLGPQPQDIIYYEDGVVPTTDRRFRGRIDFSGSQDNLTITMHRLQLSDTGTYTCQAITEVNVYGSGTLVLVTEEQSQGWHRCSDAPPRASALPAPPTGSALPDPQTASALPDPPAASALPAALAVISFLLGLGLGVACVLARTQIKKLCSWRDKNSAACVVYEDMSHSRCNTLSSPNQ

Sequence of Cynomolgus monkey (Macaca fascicularis) CD7 protein (soluble) (cynomolgus monkey (Macaca fascicularis)) (chain, as listed by the source limits assumed): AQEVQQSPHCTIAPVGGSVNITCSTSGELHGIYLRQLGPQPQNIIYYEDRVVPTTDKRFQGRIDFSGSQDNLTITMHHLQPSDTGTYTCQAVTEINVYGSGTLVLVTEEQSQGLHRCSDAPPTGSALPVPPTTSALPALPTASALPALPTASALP
Sequence of Human CD7 protein (soluble) (human) (P09564 26-180 limits assumed): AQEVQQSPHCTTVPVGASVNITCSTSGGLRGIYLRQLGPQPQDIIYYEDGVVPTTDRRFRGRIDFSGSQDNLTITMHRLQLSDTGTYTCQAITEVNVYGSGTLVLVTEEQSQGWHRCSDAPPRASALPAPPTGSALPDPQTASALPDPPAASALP

## RFT2 IgG1 (antibody)
[1]
  Kd: 6.22 nM
  koff: 0.0037 s⁻¹
  kon: 611000 M⁻¹ s⁻¹
[2]
  Kd: 50.8 nM
  koff: 0.0254 s⁻¹
  kon: 529000 M⁻¹ s⁻¹

## RFT2 IgG1 E345R (antibody)
[3]
  CDC assay on CEM cells, EC50 (FIG. 1): < 1 nM
  CDC assay on CEM cells, maximum killing (FIG. 1): 100%
  EC50, CDC assay on CEM cells: 0.22 nM
  Maximum killing, CDC assay on CEM cells: 98.5%

## TH69 (antibody)
[1]
  Kd: 0.279 nM
  koff: 0.000125 s⁻¹
  kon: 451000 M⁻¹ s⁻¹

## TH69 E345R (antibody)
[3]
  EC50, CDC assay on CEM cells: 0.21 nM
  Maximum killing, CDC assay on CEM cells: 87.1%
